Reference: publication PMC11963761, “Structural basis for control of integrative and conjugative element excision and transfer by the oligomeric winged helix–turn–helix protein RdfS”
Values belong to the molecule of their own block, whether it stands above or below them.

How the values were obtained:
[1] = target: 6H-RdfS, N-terminal hexahistidine fusion of RdfS (Mesorhizobium japonicum R7A); test: SEC-SAXS; SEC-SY-SAXS (Australian Synchrotron) of 6H-RdfS bound to the 40-bp dsDNA attP_8; mass of the nucleoprotein complex from scattering
[2] = target: T1, RdfS (Mesorhizobium japonicum R7A (ICEMlSymR7A)) (UniProt Q7AL96); test: EMSA; settings: EMSA: DNA master mix 50 mM Tris-HCl, 150 mM NaCl, 5% glycerol, pH 7.4, 1 unit poly[d(I-C)] (10 of 20 uL), 10 nM DNA; SPR: ReDCaT on Biacore T200, 1 uM protein …
T1 sequence: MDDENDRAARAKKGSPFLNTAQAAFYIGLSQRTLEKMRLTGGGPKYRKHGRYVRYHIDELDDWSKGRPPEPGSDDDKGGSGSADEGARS

[3] = target: RdfS, recombination directionality factor of ICEMlSym^R7A (6H tag removed) (Mesorhizobium japonicum R7A); test: SEC; analytical gel filtration, Superdex 75 10/300 GL, 50 mM Tris–HCl, 300 mM NaCl, 5% (v/v) glycerol, pH 7.4, 4°C, 0.5 ml/min; protein at ∼7 mg/ml, 50 μl injected; no DNA
[4] = target: RdfS_(13–89), α1-truncated RdfS (Mesorhizobium japonicum R7A); test: as above
[5] = test system: RdfS13-89 (Mesorhizobium japonicum R7A (ICEMlSymR7A)); test: EMSA; settings: EMSA: DNA master mix 50 mM Tris-HCl, 150 mM NaCl, 5% glycerol, pH 7.4, 1 unit poly[d(I-C)] (10 of 20 uL), 10 nM DNA; SPR: ReDCaT on Biacore T200, 1 uM protein …
6H-RdfS = target: T2, 6H-RdfS (Mesorhizobium japonicum R7A …, UniProt Q7AL96 1-89); test: SEC-SAXS; 4:1 protein:dsDNA; EMSA: DNA master mix 50 mM Tris-HCl, 150 mM NaCl, 5% glycerol, pH 7.4, 1 unit poly[d(I-C)] (10 of 20 uL), 10 nM DNA; SPR: ReDCaT on Biacore T200, 1 uM protein; settings: protein: recombinant; tags: N-terminal 6xHis; chain copies: 4; blunt
T2 sequence: T1 sequence

stoichiometry N [1]: 4
Molecule: 6H-RdfS, N-terminal hexahistidine fusion of RdfS (natural protein)

Molecule: GCCGGCTCAAGCCCTCGCGCCGCAACTCGGCGCGGGGGTTCCCGCCGACGCTCGCCCGAAGGGGCGGCGAAAACTCCCACCCGACTCTTCGCCCGTCCCCACGACGACCTCGTTCGCCGATCCTCGCGGTTGCTTGTCCGAAGCGAAACGAGGACC (double strand) [PrdfS 162 bp]
binding [2]: binds

stoichiometry N [3]: 4
Molecule: RdfS, recombination directionality factor of ICEMlSym^R7A (6H tag removed) (natural protein)

stoichiometry N [4]: 2
Molecule: RdfS_(13–89), α1-truncated RdfS (domain or fragment)

Molecule: attP 283 bp
binding signal (% of RdfS affinity) [5]: 50

B1: attP_8 40-mer (dsDNA)
DNA 1: GAATTTCGGCGCAGTTGGTCCAACGAGGCGGGGGGCTGGT
DNA 2: ACCAGCCCCCCGCCTCGTTGGACCAACTGCGCCGAAATTC
binding result (6H-RdfS): binds
